# From US20240344040A1, “PROKARYOTIC AND EUKARYOTIC CELLS WITH BIOSYNTHESIZED SULFOTYROSINE FOR GENETIC INCORPORATION” (William Marsh Rice University, priority 2023, published 2024)
# Non-standard residues stand in square brackets, D forms with d. sY = N[C@@H](Cc1ccc(OS(=O)(=O)O)cc1)C(=O)O
# Target: thrombin
# Experiment: chromogenic thrombin amidolytic activity assay; tight-binding model (Morrison equation)
row,Ki,Binder
1,0.5 nM,madanin-1 sulfated at both Tyr32 and Tyr35 (peptide) MYPERDSAKEGNQEQERALHVKVQKRTDGDAD[sY]DE[sY]EEDGTTPTPDPTAPTAKPRLRGNKPHHHHHH
2,1.3 nM,madanin-1 with a single sulfotyrosine at Tyr32 (peptide) MYPERDSAKEGNQEQERALHVKVQKRTDGDAD[sY]DEYEEDGTTPTPDPTAPTAKPRLRGNKPHHHHHH
3,12.9 nM,wildtype chimadanin (peptide) MQPKEKTKGVEVEGNPATLISARQMDVSYDEYEDNGPDVIPGEPAKPRGGPKNGAASGKFDQIPDFSSESHHHHHHH

# Further lines, the binder ahead of its results:
row,Binder,Ki
1,madanin-1 with a single sulfotyrosine at Tyr35 (peptide) MYPERDSAKEGNQEQERALHVKVQKRTDGDADYDE[sY]EEDGTTPTPDPTAPTAKPRLRGNKPHHHHHH,6.1 nM
2,wildtype madanin-1 (peptide) MYPERDSAKEGNQEQERALHVKVQKRTDGDADYDEYEEDGTTPTPDPTAPTAKPRLRGNKPHHHHHH,16 nM
3,chimadanin with a single biosynthesized sulfotyrosine at Tyr28 (sulfotyrosine at Tyr28 (counted without the initiator Met; residue 29 of SEQ ID NO: 107 as printed)) MQPKEKTKGVEVEGNPATLISARQMDVSYDEYEDNGPDVIPGEPAKPRGGPKNGAASGKFDQIPDFSSESHHHHHHH,0.6 nM
4,chimadanin with a single biosynthesized sulfotyrosine at Tyr31 (sulfotyrosine at Tyr31 (counted without the initiator Met; residue 32 of SEQ ID NO: 107 as printed)) MQPKEKTKGVEVEGNPATLISARQMDVSYDEYEDNGPDVIPGEPAKPRGGPKNGAASGKFDQIPDFSSESHHHHHHH,1.5 nM
5,chimadanin doubly sulfated at both Tyr28 and Tyr31 (sulfotyrosine at Tyr28 and Tyr31 (counted without the initiator Met; residues 29 and 32 of SEQ ID NO: 107 as printed)) MQPKEKTKGVEVEGNPATLISARQMDVSYDEYEDNGPDVIPGEPAKPRGGPKNGAASGKFDQIPDFSSESHHHHHHH,0.1 nM
